Article doi:10.1101/702415 (bioRxiv, 2019)

Biological target: T1, Ups1 (S. cerevisiae, UniProt Q05776 1-175)
T1 sequence: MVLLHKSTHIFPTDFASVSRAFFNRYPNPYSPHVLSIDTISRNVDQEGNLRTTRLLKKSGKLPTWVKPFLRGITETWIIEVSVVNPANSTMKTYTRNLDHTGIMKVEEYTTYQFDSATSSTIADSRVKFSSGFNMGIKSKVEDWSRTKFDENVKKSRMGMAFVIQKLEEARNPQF
Assay: crystal structure

B1: Mdm35 (natural protein)
chain: MGNIMSASFAPECTDLKTKYDSCFNEWYSEKFLKGKSVENECSKQWYAYTTCVNAALVKQGIKPALDEAREEAPFENGGKLKEVDK
binding result: binds
